Tests used:
HeLa Kyoto [1] = test: solubility in G1/S (NP-40 vs SDS abundance) (log2 ratio); higher = more soluble; conditions: cell cycle stage: G1/S
HeLa Kyoto [2] = test: melting temperature (median over replicates), in situ; higher = more thermally stable
HeLa Kyoto [3] = test: solubility change mitosis vs G1/S (difference of NP-40 vs SDS log2 ratios) (log2 ratio difference); higher = more soluble in mitosis
HeLa Kyoto [4] = test: thermal stability score vs G1/S (z-score of summed log2 fold changes over temperatures); higher = more thermally stable than in G1/S
[5] = cell cycle stage: early G1 (4.5 h after nocodazole release)
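Wherever melting temperature (median over replicates), in situ is given: HeLa Kyoto cells synchronized by double thymidine or nocodazole block, proteins quantified by TMT10plex mass spectrometry, three independent biological replicates.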
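Wherever solubility change mitosis vs G1/S (difference of NP-40 vs SDS log2 ratios) is given: synchronized HeLa Kyoto cells (double thymidine block for G1/S, nocodazole release for mitosis), protein amounts in NP-40 versus SDS lysates quantified by mass spectrometry, three biological replicates.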
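Wherever solubility in G1/S (NP-40 vs SDS abundance) is given: HeLa Kyoto cells arrested at G1/S by double thymidine block, proteins quantified by TMT10plex mass spectrometry in mild NP-40 versus SDS extracts, three biological replicates.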
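Wherever thermal stability score vs G1/S (z-score of summed log2 fold changes over temperatures) is given: synchronized HeLa Kyoto cells, proteins quantified by TMT10plex mass spectrometry, three biological replicates, mitosis taken 0.5 h after nocodazole release, G1/S directly after double thymidine block.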

UBE2Q1, sequence (chain, as listed by the source): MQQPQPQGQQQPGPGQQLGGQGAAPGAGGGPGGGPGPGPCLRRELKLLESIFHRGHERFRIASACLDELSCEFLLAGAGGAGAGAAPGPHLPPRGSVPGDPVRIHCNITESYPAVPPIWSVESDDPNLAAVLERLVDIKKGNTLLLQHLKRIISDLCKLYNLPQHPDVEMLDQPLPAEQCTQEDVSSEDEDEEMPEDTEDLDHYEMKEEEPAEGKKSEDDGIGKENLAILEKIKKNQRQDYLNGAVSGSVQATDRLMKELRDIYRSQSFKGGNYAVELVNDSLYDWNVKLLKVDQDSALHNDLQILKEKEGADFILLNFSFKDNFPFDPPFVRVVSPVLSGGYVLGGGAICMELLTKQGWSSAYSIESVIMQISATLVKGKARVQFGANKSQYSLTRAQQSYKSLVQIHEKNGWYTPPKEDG

Row | Substance | solubility in G1/S (log2) (HeLa Kyoto [1]) | melting temperature (HeLa Kyoto [2]; cell cycle stage: G1/S) [°C] | melting temperature (HeLa Kyoto [2]; cell cycle stage: mitosis) [°C] | solubility change mitosis (log2) (HeLa Kyoto [3]) | thermal stability score (HeLa Kyoto [4]; [5]) | thermal stability score (HeLa Kyoto [4]; cell cycle stage: mitosis)
1 | MGALVIRGIRNFNLENRAEREISKMKPSVAPRHPSTNSLLREQISLYPEVKGEIARKDEKLLSFLKDVYVDSKDPVSSLQVKAAETCQEPKEFRLPKDHHFDMINIKSIPKGKISIVEALTLLNNHKLFPETWTAEKIMQEYQLEQKDVNSLLKYFVTFEVEIFPPEDKKAIRSK [NDUFAF4] | 0.314 | 50.4 | 54.2 | -0.0449 | -2.2 | -2.98
2 | MGEIKVSPDYNWFRGTVPLKKIIVDDDDSKIWSLYDAGPRSIRCPLIFLPPVSGTADVFFRQILALTGWGYRVIALQYPVYWDHLEFCDGFRKLLDHLQLDKVHLFGASLGGFLAQKFAEYTHKSPRVHSLILCNSFSDTSIFNQTWTANSFWLMPAFMLKKIVLGNFSSGPVDPMMADAIDFMVDRLESLGQSELASRLTLNCQNSYVEPHKIRDIPVTIMDVFDQSALSTEAKEEMYKLYPNARRAHLKTGGNFPYLCRSAEVNLYVQIHLLQFHGTKYAAIDPSMVSAEELEVQKGSLGISQEEQ [SPG21] | 0.00691 | 49.5 | 49 | -0.157 | 0.11 | 0.524
3 | MIRAAPPPLFLLLLLLLLLVSWASRGEAAPDQDEIQRLPGLAKQPSFRQYSGYLKGSGSKHLHYWFVESQKDPENSPVVLWLNGGPGCSSLDGLLTEHGPFLVQPDGVTLEYNPYSWNLIANVLYLESPAGVGFSYSDDKFYATNDTEVAQSNFEALQDFFRLFPEYKNNKLFLTGESYAGIYIPTLAVLVMQDPSMNLQGLAVGNGLSSYEQNDNSLVYFAYYHGLLGNRLWSSLQTHCCSQNKCNFYDNKDLECVTNLQEVARIVGNSGLNIYNLYAPCAGGVPSHFRYEKDTVVVQDLGNIFTRLPLKRMWHQALLRSGDKVRMDPPCTNTTAASTYLNNPYVRKALNIPEQLPQWDMCNFLVNLQYRRLYRSMNSQYLKLLSSQKYQILLYNGDVDMACNFMGDEWFVDSLNQKMEVQRRPWLVKYGDSGEQIAGFVKEFSHIAFLTIKGAGHMVPTDKPLAAFTMFSRFLNKQPY [CTSA] | 0.138 | 54.5 | 57 | -0.0924 | 0.798 | 2.87
4 | MGELPLDINIQEPRWDQSTFLGRARHFFTVTDPRNLLLSGAQLEASRNIVQNYRAGVVTPGITEDQLWRAKYVYDSAFHPDTGEKVVLIGRMSAQVPMNMTITGCMLTFYRKTPTVVFWQWVNQSFNAIVNYSNRSGDTPITVRQLGTAYVSATTGAVATALGLKSLTKHLPPLVGRFVPFAAVAAANCINIPLMRQRELQVGIPVADEAGQRLGYSVTAAKQGIFQVVISRICMAIPAMAIPPLIMDTLEKKDFLKRRPWLGAPLQVGLVGFCLVFATPLCCALFPQKSSIHISNLEPELRAQIHEQNPSVEVVYYNKGL [SFXN3] | 0.286 | 53.6 | 53.5 | -0.0789 | -0.249 | -0.897
5 | MASFVTEVLAHSGRLEKEDLGTRISRLTRRVEEIKGEVCNMISKKYSEFLPSMQSAQGLITQVDKLSEDIDLLKSRIESEVRRDLHVSTGEFTDLKQQLERDSVVLSLLKQLQEFSTAIEEYNCALTEKKYVTGAQRLEEAQKCLKLLKSRKCFDLKILKSLSMELTIQKQNILYHLGEEWQKLIVWKFPPSKDTSSLESYLQTELHLYTEQSHKEEKTPMPPISSVLLAFSVLGELHSKLKSFGQMLLKYILRPLASCPSLHAVIESQPNIVIIRFESIMTNLEYPSPSEVFTKIRLVLEVLQKQLLDLPLDTDLENEKTSTVPLAEMLGDMIWEDLSECLIKNCLVYSIPTNSSKLQQYEEIIQSTEEFENALKEMRFLKGDTTDLLKYARNINSHFANKKCQDVIVAARNLMTSEIHNTVKIIPDSKINVPELPTPDEDNKLEVQKVSNTQYHEVMNLEPENTLDQHSFSLPTCRISESVKKLMELAYQTLLEATTSSDQCAVQLFYSVRNIFHLFHDVVPTYHKENLQKLPQLAAIHHNNCMYIAHHLLTLGHQFRLRLAPILCDGTATFVDLVPGFRRLGTECFLAQMRAQKGELLERLSSARNFSNMDDEENYSAASKAVRQVLHQLKRLGIVWQDVLPVNIYCKAMGTLLNTAISEVIGKITALEDISTEDGDRLYSLCKTVMDEGPQVFAPLSEESKNKKYQEEVPVYVPKWMPFKELMMMLQASLQEIGDRWADGKGPLAAAFSSSEVKALIRALFQNTERRAAALAKIK [ZW10] | -0.218 | 49.6 | 49.5 | -0.19 | 0.485 | 1.13
6 | MAHVGSRKRSRSRSRSRGRGSEKRKKKSRKDTSRNCSASTSQGRKASTAPGAEASPSPCITERSKQKARRRTRSSSSSSSSSSSSSSSSSSSSSSSSSDGRKKRGKYKDKRRKKKKKRKKLKKKGKEKAEAQQVEALPGPSLDQWHRSAGEEEDGPVLTDEQKSRIQAMKPMTKEEWDARQSIIRKVVDPETGRTRLIKGDGEVLEEIVTKERHREINKQATRGDCLAFQMRAGLLP [ARL6IP4] | -0.997 | 52.6 | 52 | 0.853 | -1.78 | -3.1
7 | MPTVEELYRNYGILADATEQVGQHKDAYQVILDGVKGGTKEKRLAAQFIPKFFKHFPELADSAINAQLDLCEDEDVSIRRQAIKELPQFATGENLPRVADILTQLLQTDDSAEFNLVNNALLSIFKMDAKGTLGGLFSQILQGEDIVRERAIKFLSTKLKTLPDEVLTKEVEELILTESKKVLEDVTGEEFVLFMKILSGLKSLQTVSGRQQLVELVAEQADLEQTFNPSDPDCVDRLLQCTRQAVPLFSKNVHSTRFVTYFCEQVLPNLGTLTTPVEGLDIQLEVLKLLAEMSSFCGDMEKLETNLRKLFDKLLEYMPLPPEEAENGENAGNEEPKLQFSYVECLLYSFHQLGRKLPDFLTAKLNAEKLKDFKIRLQYFARGLQVYIRQLRLALQGKTGEALKTEENKIKVVALKITNNINVLIKDLFHIPPSYKSTVTLSWKPVQKVEIGQKRASEDTTSGSPPKKSSAGPKRDARQIYNPPSGKYSSNLGNFNYEQRGAFRGSRGGRGWGTRGNRSRGRLY [API5] | 0.323 | 53.7 | 52.8 | 0.0442 | 1.42 | 1.11
8 | MMDLRNTPAKSLDKFIEDYLLPDTCFRMQINHAIDIICGFLKERCFRGSSYPVCVSKVVKGGSSGKGTTLRGRSDADLVVFLSPLTTFQDQLNRRGEFIQEIRRQLEACQRERAFSVKFEVQAPRWGNPRALSFVLSSLQLGEGVEFDVLPAFDALGQLTGGYKPNPQIYVKLIEECTDLQKEGEFSTCFTELQRDFLKQRPTKLKSLIRLVKHWYQNCKKKLGKLPPQYALELLTVYAWERGSMKTHFNTAQGFRTVLELVINYQQLCIYWTKYYDFKNPIIEKYLRRQLTKPRPVILDPADPTGNLGGGDPKGWRQLAQEAEAWLNYPCFKNWDGSPVSSWILLAESNSADDETDDPRRYQKYGYIGTHEYPHFSHRPSTLQAASTPQAEEDWTCTIL [OAS1] | 0.134 | 50.5 | 49.5 | -0.0843 | -0.255 | 0.00402
9 | MASTDYSTYSQAAAQQGYSAYTAQPTQGYAQTTQAYGQQSYGTYGQPTDVSYTQAQTTATYGQTAYATSYGQPPTGYTTPTAPQAYSQPVQGYGTGAYDTTTATVTTTQASYAAQSAYGTQPAYPAYGQQPAATAPTRPQDGNKPTETSQPQSSTGGYNQPSLGYGQSNYSYPQVPGSYPMQPVTAPPSYPPTSYSSTQPTSYDQSSYSQQNTYGQPSSYGQQSSYGQQSSYGQQPPTSYPPQTGSYSQAPSQYSQQSSSYGQQSSFRQDHPSSMGVYGQESGGFSGPGENRSMSGPDNRGRGRGGFDRGGMSRGGRGGGRGGMGSAGERGGFNKPGGPMDEGPDLDLGPPVDPDEDSDNSAIYVQGLNDSVTLDDLADFFKQCGVVKMNKRTGQPMIHIYLDKETGKPKGDATVSYEDPPTAKAAVEWFDGKDFQGSKLKVSLARKKPPMNSMRGGLPPREGRGMPPPLRGGPGGPGGPGGPMGRMGGRGGDRGGFPPRGPRGSRGNPSGGGNVQHRAGDWQCPNPGCGNQNFAWRTECNQCKAPKPEGFLPPPFPPPGGDRGRGGPGGMRGGRGGLMDRGGPGGMFRGGRGGDRGGFRGGRGMDRGGFGGGRRGGPGGPPGPLMEQMGGRRGGRGGPGKMDKGEHRQERRDRPY [EWSR1] | 0.0308 | 55.6 | 55.8 | 0.157 | 0.0358 | 0.453
10 | MLPLSLLKTAQNHPMLVELKNGETYNGHLVSCDNWMNINLREVICTSRDGDKFWRMPECYIRGSTIKYLRIPDEIIDMVKEEVVAKGRGRGGLQQQKQQKGRGMGGAGRGVFGGRGRGGIPGTGRGQPEKKPGRQAGKQ [LSM4] | 0.0844 | 58.1 | 54.6 | 0.187 | -3.84 | -4.06
11 | MDLWPGAWMLLLLLFLLLLFLLPTLWFCSPSAKYFFKMAFYNGWILFLAVLAIPVCAVRGRNVENMKILRLMLLHIKYLYGIRVEVRGAHHFPPSQPYVVVSNHQSSLDLLGMMEVLPGRCVPIAKRELLWAGSAGLACWLAGVIFIDRKRTGDAISVMSEVAQTLLTQDVRVWVFPEGTRNHNGSMLPFKRGAFHLAVQAQVPIVPIVMSSYQDFYCKKERRFTSGQCQVRVLPPVPTEGLTPDDVPALADRVRHSMLTVFREISTDGRGGGDYLKKPGGGG [AGPAT1] | -0.318 | 53.3 | 52.7 | 0.0448 | 0.708 | 0.125
12 | TP53BP1 | -0.0663 | 49.9 | 50.8 | -0.107 | -3.39 | -2.67
13 | MDDTLFQLKFTAKQLEKLAKKAEKDSKAEQAKVKKALLQKNVECARVYAENAIRKKNEGVNWLRMASRVDAVASKVQTAVTMKGVTKNMAQVTKALDKALSTMDLQKVSSVMDRFEQQVQNLDVHTSVMEDSMSSATTLTTPQEQVDSLIMQIAEENGLEVLDQLSQLPEGASAVGESSVRSQEDQLSRRLAALRN [CHMP1A] | 0.509 | 54.4 | 53.9 | 0.313 | -0.982 | -1.61
14 | UBE2Q1 | 0.255 | 50 | 50.3 | -0.042 | 0.426 | 0.875
15 | MAEVGEDSGARALLALRSAPCSPVLCAAAAAAAFPAAAPPPAPAQPQPPPGPPPPPPPPLPPGAIAGAGSSGGSSGVSGDSAVAGAAPALVAAAAASVRQSPGPALARLEGREFEFLMRQPSVTIGRNSSQGSVDLSMGLSSFISRRHLQLSFQEPHFYLRCLGKNGVFVDGAFQRRGAPALQLPKQCTFRFPSTAIKIQFTSLYHKEEAPASPLRPLYPQISPLKIHIPEPDLRSMVSPVPSPTGTISVPNSCPASPRGAGSSSYRFVQNVTSDLQLAAEFAAKAASEQQADTSGGDSPKDESKPPFSYAQLIVQAISSAQDRQLTLSGIYAHITKHYPYYRTADKGWQNSIRHNLSLNRYFIKVPRSQEEPGKGSFWRIDPASEAKLVEQAFRKRRQRGVSCFRTPFGPLSSRSAPASPTHPGLMSPRSGGLQTPECLSREGSPIPHDPEFGSKLASVPEYRYSQSAPGSPVSAQPVIMAVPPRPSSLVAKPVAYMPASIVTSQQPAGHAIHVVQQAPTVTMVRVVTTSANSANGYILTSQGAAGGSHDAAGAAVLDLGSEARGLEEKPTIAFATIPAAGGVIQTVASQMAPGVPGHTVTILQPATPVTLGQHHLPVRAVTQNGKHAVPTNSLAGNAYALTSPLQLLATQASSSAPVVVTRVCEVGPKEPAAAVAATATTTPATATTASASASSTGEPEVKRSRVEEPSGAVTTPAGVIAAAGPQGPGTGE [FOXK1] | 0.588 | 49.1 | 51 | -0.0982 | 2.52 | 2.09
